Source: a protein production outcome set (Wang et al. 2014)

Test: label from the status in PepcDB records

Row | Sequence | protein production
1 | MKKEKLFSLLRYIDNGSLECITSLFLITLSLTMPAIGLGNFGIQVIALSMIPLINVRFPVAALPLALVATVWLNAWADHLLLTGFIVYLAVEYATSRGRFALALILGVEWILIAYGVALERPLEAKDSPSLITEILLILVAAGTGAGRWKILSERKQRAITQQEIIKKIRTDIAHYLHDSMARSLAIMIVQSKLTELEPDPKKIQEKLNSIAKIGQEAVADLHQLVRHLVVEESAEKATAFGAWAAVSIHDTVNSAIQLLVDAGHVVSFDSRKKNYKLDHIAETAFALAFNEAVCNAIKHSPPKANVTIRITEKAQSLQILVMNPIGDWHANGESAIPGVGIGVESLTRRIRNIKGQVCVTSLQGYWKVVISLPLKCEDS | failed
2 | MKKFKLSSFLPLSYILLLVLVSPLYDVLNKSTVHAVDVTTVVDDWIPFVKAFIIPYLLWFPYLYGALIYYCFADRKQYYVTLSSVIFGKLACFSIYYFWQTTVPRPTVVGTDVFSELVRYIYSIDQPVNCFPSIHVLTTFVIMLAAFKRREQHAFEYYILTFFGTLIILSTLFTKQHAFLDAVSGMTLASILYFGVQLLLAKEPIKVPVKQNHKM | failed
3 | MKKFVCTVCGYIHEGDAAPAQCPVCKVGADKFEEMKGEMVWADEHRIGVAQGVDAEIIEGLRANFTGECTEVGMYLAMSRQADREGYPEVAEAYKRIAFEEAEHAAKFAELLGEVVVADTKENLRVRVDAEYGATDGKLKLAKRAKELGLDAIHDTVHEMCKDEARHGKAFLGLLNRHFGKLEHHHHHH | not failed
4 | MKKGIQPLKWKDVPALAVLGFFSVTLHHLLINTGQQYVTAVASSILSQSIPLFTFIISALLFKEQISFKQWLCILLGLCGAVLVVSGDHGFGMPSPYSLLIVLAAIAWGLYFNLYKKFALNYDALSMMCYIIWFGTLPLLFYSAHLPSEILHATWQANMSVVLLGIFPSAMAYVLWGYVLKNMPLTIASNFLYCSPIVAMSLAVLFLNEKPSIIVLLGGVIIVGSLVWMNWGRKK | failed
5 | MKKILILFFLLFTVNAFTQNYADYMSSGLDAYARSDWSSALFSFQKAMEVSKNSLDEPLYWLIMANASARNYTVALNDIETFLKRFPNSSKAAEVIYQQGRICCLSAKHDQSINILYGFLRKYPNHRQTASAYYWIGENLYMVGRLKDARTIFSRVIIDYPSSAKVEPSRYKIALIDQASTQDELLKLLKISHEELLKLSEESEKNKKIYEQTIAAYQRQSSDAGGDMRIAELSEQLKMERKHNEELHDQLVMLELKNQELLATLAKMDAKYTSEMAADGETPAADYSDPKAKRAAIEALIKKAKILQSMYNQLLEGNGQ | failed
6 | MKKILVLGGAHIDRRGMIETETAPGASNPGSWMEEAGGGGFNAARNLSRLGFEVRIIAPRGGDVTGEVVAEAARQAGVEDTPFTFLDRRTPSYTAILERDGNLVIALADMDLYKLFTPRRLKVRAVREAIIASDFLLCDANLPEDTLTALGLIARACEKPLAAIAISPAKAVKLKAALGDIDILFMNEAEARALTGETAENVRDWPNILRKAGLSGGVVTRGASEVVAFNGTEKAILHPPLIREVKDVTGAGDAMASGYLAAIAEGKTIREALRQGAAAAAITVQSSFATSQDLSKDSVEAMLGLVPQAEMLA | not failed
7 | MKKITKMVISSVLATVLMTACSQSSQNGQSDVKHIGILQYVEHPSLTATRKGFIKELAKEGYKDGKNIKIEYKNAQGDQSNIQSISEKLIKDNKLVLGIATPAAQSLTTVSTETPILFTAVTDPVSAELVKSMKKPEGLATGTSDMSPIKKQVSLLRKVMPKVKRVGIMYTTSERNSEVQVKQAKKIFQEAGIKTSVKGISSTNDVQDTAKSLMSKTEVIFVPTDNIIASSVTLLGNLSKELKVPVVGGSADMVPSGLLFSYGADYEALGRQTARQAVKILKGKDVAKVPSEYPQNLKVVVNEDMAKELGIDVSSIKNNK | failed
8 | MKKIYIILLILFVILISLIGASILLVMSLSGENVDLFGGEKIAKVYLCNEIYFDYNQGDGIFPQQKKDARYYINLLDDLEKDDSVKGVLLVVNSPGGEVIASEKLARKVEELAKKKPVVVYVEGLDASGAYMVSAPADYIVAEKHSIVGSIGVRMDLMHYYGLMKKLGINVTTIKAGKYKDIGSPFRPMTKEEKEYLQKMINETYMDFVKWVAEHRHLSINYTLKIADGKIYSGEDAKKVGLVDEVGTEEDALKKLEQLANVSNPEIVEYGLEENKGLFGLTYYLGYGIGKGIGEVLYGMEKINGRVELLSLEHHHHHH | failed
9 | MKKKKVIASIVAVCFSLALLSTWVMIFGCMKRGEQELHANTSVEIPDMSSIPGCVQNGGQLMYRGNIYKYDPANINILFMGIDARGEDESIGQADMLALVVINTEKDTVKCICINRDSIGPVAIYDISGKAATTKNVQIALAYSYGKSQSEGRGLEMNTVSKLLHGIPIHGSVSVDIDGIGGINELAGGITLTALEDVPKAGIVKGEEVTLNDEQAMYYVTERDSASTDIGTNENRMSRQKQYISAWCDAVQQQIKKNPFKIFKMYDSVQGYVDTDISRNSMLYLAKVLKRVQFGEGDIYTVSGDYERENYYDKYLIDEDKLTEMMIETFYRKTE | failed
10 | MKKKLLNYLILLACLATVSVSCSGSAQAAVLGDDYPFSWKYGGFGVDPWTMYWRQCTSFAAYRLSNTNGFTLPIGYGNAITWGNIARANGHRVDMNPAVGSIAWFSAGVNGAGHMGHVAWVAEVHGDQVTIEEYNYDAGQGPEKYHKRSFHKSQVSGYIHFKDLESGTQNGNPTNSSIKVGDSVRFTGTFRVTSVSGNTITSQDLAGGTPTKHNIVDPSPVLEVDAQGNPTSDQYLNPGETFTIPGNFKVLAIDPPSDGILVQIGNLKTWVTQSVLEKILEHHHHHH | not failed
11 | MKKKSLIILSIIVLIFVCITLYLTREHIMVFYKLITNGEVVKSYLERFGPWAAVIFFVFQILQVVIFFIPGEVIQAAGGYIFGALGGTLLSFFGIAVGSAILFYICQKFGKKLVQRFVPKDMYDKLEKILNSPKFKLILVILFFLPGAPKDSLIMVCALSNITIGHFIIFSMIGRIPALVASSFMGANLAEGNIVGVIIIGVIALIACALGVIFRKDVFKYMEKL | failed
12 | MKKLFFIFLGSCTFALGTLGIFLPLLPTTGFYLLTAFFWMRSSDKLYNKFLASSYYQKYIQEAFFEKKITRKGKWKLFISMFLLFAIPCLIVRNTLMTTTLAIVYLAHVIGLSWYWRPKKKALELDQE | failed
13 | MKKLFPLLLLILSILVGCGKKEKHSVTEIAREKKRITALLYEKELPTDSVKQLYENSVQNKNLVGQMLFAIEVGKRMRNMSQYTDAMLYHQKGLNAALNLRDTIVAAQAWNHLGTDSRRIGALAEASDYHYKALSLIESFSGNQNRPAIKARSAALNGIGNINLELGYHDEAEKNFLKALQGEKELDSPLGQAINYANLGRIYRQRKEYDKARTYFLLSLEQNNMAENLMGIGLCSINLGEVDEEKGDYQKALQEYATAYKLMEQLSDRWHWLNSCIPMARINLKQGNERLYQHFISLAEGTAKEINSTSHLIEIYNLQYENLERKKEYKQALEAFCLSKTLSDSMSIAHKVSSIQETRFNYERNKSQKELEEIQQVSKAKQEKSKFILLSTLFALFISILLISVLTYAYRQGKKHNKLIKETDKLRSGFFTGITHEFRTPITVIQGLNEKMSSSPDLQASDRTELHKIIDRQSSHMLNLVNQLLDICKIRSGVSTPEWRNGDIVSFVQILIDSFAPYAQAQDITLELQPESKPIVVDFVPSYLQKIISNLLSNAIKYSLAGGRVVISLAKTKNEKNLIIRVADNGIGIDKTDQAHIFDIFYRGQSATEKHGSGVGLSFTNILVENLRGTIKVESQPGKGSAFTISIPTQNQSSSAEILPWLPSSDDIVMPVHIAPDDSPTSPMVAALNHRFEDERPTILLVEDNKDINLLVKLLLCDRYNVLSAANGKEGIALATEHIPDIIITDIMMPIMDGIEMTIRMKQSPLLCHIPIVALTAKSTEQDRLEGIKSGVVSYLCKPFSPEELLMRIEQLLKDRELLKKFYMQKLMLDRKPEEEPQPIDDSSMQFLLAAKDAVSGGIKQNPDFSAQDLAEKMCMSPSQLNRKLTSVVGCSTIGYIQQIKIKLACKLLADESKNISDISIEAGFSDPAYFSRTFKRYMNCSPSQYRQKLLAMPGSDKETV | failed
14 | MKKLILSALVLGGAMTFTAQAQNKAAEPAEEFFLEGRAMFIRQNYVGALDQFRLYRLHVGQEHALEVDYYSIIADYLLGADHDYVLSAVGNFLDNFPESIDKSRVRLLTGELMIRHEQYLRANTIFSDIDDRTLNDEDLAAYLLYYAYVRMQLSESNALAEQMLLKASESRGELGGRACLLLAAIQIEDGRIDEAEQTLSRLKNRPQFADEADAYIAEIQLLRGDYREAAEIADRLLSRNSPMRQRPQLLRVAGNAYYRLGDSNKTIDYLSDYSEKVGDRIAPADAYALGVTYYKQGLMKEALRPLAAATTDAGSLGAESALYLGQAQLAEGMTSEALMAFEKAATQDVNRPVREVGMYNMAMLMRSTGQSSFGQSVRIAENFLNEFPRSSHREQMAAILVESYFTGKDYNSSLRSIQKIAQPTASILAAKQFVLNRMAEQKEAAGYDSEALSFVSSSISMGNKGEYFPEAYFLRGNLRYRAGDFPTAAADYRAYISAAGDRDAANLPLGYYRLGYSLFNAERYDMALEAFKEYVSRSGIAPNLSADAYARIGDCRYMKRDFHGAREAYSMAYRVYPSGGDYALLRRARLEGLAKQYADQIQTLDKLIREFPDSRHLTAALYEKGCGAVLSGKHNVAEEAFNAVVKRSPDSREARQSSLQLGLLYYNTGRTKEAIRTYQRIIDRYPRSEETTVALSDLRSIYLEEDRIDEYSTYVRGLKDKVSIAPSETEQLGFLSAERKYRRRQPDARRDLEAYLERYPQGSDRHKAELYLADLDYQAGNADAAYNRYSRLVNSPGLPEDYKIDARLRLGRMQYERKEYKAALQSFQSVLDTDGAEAVRDQAVQGVTESAYADKDYRRVIDVIAGLKNQAALPHTLRLYRAKSYQALKMNREAIADYELLAEDFSTATGAEAVVMQAQLEMEAKRLSKAKSILEKFIAKSTPQQYWLARGFILLSDIYKKEGDTFTARQYLESLEKNYPNHEDDIHEQIAQRLE | failed
15 | MKKLLFAIDDTEACERAAQYILDMFGKDADCTLTLIHVKPEFMLYGEAVLAAYDEIEMKEEEKAKLLTQKFSTFFTEKGINPFVVIKEGEPVEMVLEEAKDYNLLIIGSSENSFLNKIFASHQDDFIQKAPIPVLIVK | not failed
16 | MKKLLTLFCLMLGLSSTQALAAADNPVELIKDGSRQVLDVLKQDNGKNTKQVRQQAEAIAVPLFDFPRMTALAVGLGWRQATPEQRNELTQQFQTLLVRTYSTTMTRFKTAQVSVQPNPVSGANGKDVTVKSSVTLPGNANPVAVDYVLNKGDKGWKIYNVSVEGASLVTVYRNSFNEEIRKNGVDGLIKLLQDKNAAPAPAAASAAKGKGLEHHHHHH | failed
17 | MKKLNSKGIRLSELMEKWRRRKKGHFAVYTNEGKRFVLPLDYLNHPMLQVLLQMAEDEFGTTIDGPLKVPCDGSLMDHIIMLVRRSMSHDYDDVEKSSTSSTCKGASISSLFRGQSQLQSLVS | failed
18 | MKKLNTNKLTEEQVNLFKNNLVYLATVDADGNPQVGPKGSMTVLDPSHLQYLEKTKGEAYENIKRGSKVALVAADVPSHTAVRVLATAEVHEDDDYAKKVLAKTEFPNAFVVNLNIEEVFA | not failed
